Each binder was assayed against T1, HLA-A*24 (assay: UV peptide-exchange ELISA (anti-b2m); yield grade ++ = >20%).
T1 construct: Monomers captured on streptavidin plates; also called peptide-receptive MHC molecules; MHC complexes
Excerpt: Candidate peptides for T cell based therapies according to the present invention were further tested for their MHC binding capacity (affinity). The individual peptide-MHC complexes were produced by UV-ligand exchange, where a UV-sensitive peptide is cleaved upon UV-irradiation, and exchanged with the peptide of interest as analyzed. Only peptide candidates that can effectively bind and stabilize the peptide-receptive MHC molecules prevent dissociation of the MHC complexes. To determine the yield of the exchange reaction, an ELISA was performed based on the detection of the light chain (p2m) of stabilized MHC complexes. The assay was performed as generally described in Rodenko et al. (Rodenko et al., 2006)
96 well MAXISorp plates (NUNC) were coated over night with 2 ug/ml streptavidin in PBS at room temperature, washed 4× and blocked for 1 h at 37° C. in 2% BSA containing blocking buffer. Refolded HLA-A*02:01/MLA-001 monomers served as standards, covering the range of 15-500 ng/ml. Peptide-MHC monomers of the UV-exchange reaction were diluted 100-fold in blocking buffer. Samples were incubated for 1 h at 37° C., washed four times, incubated with 2 ug/ml HRP conjugated anti-β2m for 1h at 37° C., washed again and detected with TMB solution that is stopped with […]. Absorption was measured at 450 nm. Candidate peptides that show a high exchange yield (preferably higher than 50%, most preferred higher than 75%) are generally preferred for a generation and production of antibodies or fragments thereof, and/or T cell receptors or fragments thereof, as they show sufficient avidity to the MHC molecules and prevent dissociation of the MHC complexes.

peptide exchange yield	Binder
20 to 50%	RTLNEIYHW (also called RTLNEIYHW) [FOXP3-001]
20 to 50%	YGQSKPWTF (also called YGQSKPWTF) [PAX3-001]
20 to 50%	VLASAHILQF (also called VLASAHILQF) [BTBD16-005]
20 to 50%	YQGSLEVLF (also called YQGSLEVLF) [MROH2A-006]
20 to 50%	KYMSRVLFVY (also called KYMSRVLFVY) [CHRNA9-002]
20 to 50%	KMFPKDFRF (also called KMFPKDFRF) [TTLL6-001]
20 to 50%	RHYHSIEVF (also called RHYHSIEVF) [LOXL4-004]
20 to 50%	VTMYLPLLL (also called VTMYLPLLL) [GPR143-001]
20 to 50%	ASAALTGFTF (also called ASAALTGFTF) [SLC45A3-003]
20 to 50%	RAMCAMMSF (also called RAMCAMMSF) [TGM4-002]
20 to 50%	SQHFNLATF (also called SQHFNLATF) [DNMT3B-003]
20 to 50%	VYLRIGGF (also called VYLRIGGF) [WNT7A-002]
20 to 50%	KTYLPTFETTI (also called KTYLPTFETTI) [ENP-002]
20 to 50%	AVLRHLETF (also called AVLRHLETF) [CDK6-006]
20 to 50%	TQMDVKLVF (also called TQMDVKLVF) [GEN-003]
20 to 50%	MLYFAPDLIL (also called MLYFAPDLIL) [PGR-004]
20 to 50%	CAMPVAMEF (also called CAMPVAMEF) [KBTBD8-003]
20 to 50%	YLGKNWSF (also called YLGKNWSF) [SPNS3-006]
20 to 50%	RSWENIPVTF (also called RSWENIPVTF) [C18orf54-001]
20 to 50%	GYGLTRVQPF (also called GYGLTRVQPF) [ACTL8-003]
20 to 50%	FRSWAVQTF (also called FRSWAVQTF) [NOS2-002]
20 to 50%	KMLPEASLLI (also called KMLPEASLLI) [NLRP4-004]

peptide exchange yield	Binder
20 to 50%	ALFPMGPLTF (also called ALFPMGPLTF) [LILRA4-003]
20 to 50%	TIYSLEMKMSF (also called TIYSLEMKMSF) [GLB1L3-001]
20 to 50%	HQYGGAYNRV (also called HQYGGAYNRV) [DLX5-002]
20 to 50%	EVVHTVFLF (also called EVVHTVFLF) [HMCN1-007]
20 to 50%	THSGGTNLF (also called THSGGTNLF) [MMP12-019]
20 to 50%	TYESVVTGFF (also called TYESVVTGFF) [HAS3-004]
20 to 50%	KQPANFIVL (also called KQPANFIVL) [LOC1001246-001]
20 to 50%	RALLPSPLF (also called RALLPSPLF) [SPATA31D1-001]
20 to 50%	RALTETIMF (also called RALTETIMF) [ALP-011]
20 to 50%	MGKGSISFLF (also called MGKGSISFLF) [PCSK1-001]
20 to 50%	LYQQSDTWSL (also called LYQQSDTWSL) [KIAA140-001]
20 to 50%	INGDLVFSF (also called INGDLVFSF) [CAPN6-002]
20 to 50%	THAGVRLYF (also called THAGVRLYF) [NUP155-012]
20 to 50%	FFLFIPFF (also called FFLFIPFF) [ADAM2-001]
20 to 50%	WQNVTPLTF (also called WQNVTPLTF) [MMP16-002]
20 to 50%	YLPNPSLNAF (also called YLPNPSLNAF) [CYP1A1-003]
20 to 50%	YAYATVLTF (also called YAYATVLTF) [ABCC4-002]
20 to 50%	RQAYSVYAF (also called RQAYSVYAF) [SLC45A3-005]
20 to 50%	LKSPRLFTF (also called LKSPRLFTF) [BTBD16-001]
20 to 50%	YSLEHLTQF (also called YSLEHLTQF) [ZCCHC16-001]
20 to 50%	VHSYLGSPF (also called VHSYLGSPF) [MPL-001]
20 to 50%	IWDALERTF (also called IWDALERTF) [ABCC11-005]

peptide exchange yield	Binder
20 to 50%	KVFGSFLTL (also called KVFGSFLTL) [AGTR2-001]
20 to 50%	SHIGVVLAF (also called SHIGVVLAF) [OR51E2-005]
20 to 50%	KYSVAFYSLD (also called KYSVAFYSLD) [LAMA1-008]
20 to 50%	AAFPGAFSF (also called AAFPGAFSF) [CRB2-002]
20 to 50%	TDLVQFLLF (also called TDLVQFLLF) [MAGEA10-003]
20 to 50%	FSSTLVSLF (also called FSSTLVSLF) [MAGEC1-003]
20 to 50%	YLCMLYALF (also called YLCMLYALF) [KCNK18-001]
20 to 50%	LFALPDFIF (also called LFALPDFIF) [CXCR3-002]
20 to 50%	YTRLVLQF (also called YTRLVLQF) [GABRP-008]
20 to 50%	TQLPAPLRI (also called TQLPAPLRI) [GPR45-001]
20 to 50%	QFSHVPLNNF (also called QFSHVPLNNF) [ALX1-001]
20 to 50%	YQRPDLLLF (also called YQRPDLLLF) [GEN-004]
20 to 50%	AYAIPSASLSW (also called AYAIPSASLSW) [HMCN1-005]
20 to 50%	EMFFSPQVF (also called EMFFSPQVF) [ACTL8-002]
20 to 50%	ASYQQSTSSFF (also called ASYQQSTSSFF) [FAM82A1-001]
20 to 50%	YTCSRAVSLF (also called YTCSRAVSLF) [OTOG-001]
20 to 50%	AQHSLTQLF (also called AQHSLTQLF) [GPC2-002]
20 to 50%	TQIITFESF (also called TQIITFESF) [CSF2-001]
20 to 50%	KASKITFHW (also called KASKITFHW) [PTP-038]
20 to 50%	WFFQGAQYW (also called WFFQGAQYW) [MMP11-024]
20 to 50%	FSFSTSMNEF (also called FSFSTSMNEF) [CAPN6-001]
20 to 50%	EFINGWYVL (also called EFINGWYVL) [MCOLN2-002]
